According to patent US20240016892A1 (SHATTUCK LABS, published 2024):

How the values were obtained:
[1] = target: T1, anti-human TIGIT antibody (MSD capture); assay: MSD sandwich 'Dual - Antibody': capture anti-TIGIT, TIGIT-Fc-LIGHT titrated, detection anti-LIGHT
T1 construct: also called anti-TIGIT antibody

recombinant human PVR = target: T2, recombinant human PVR (human, UniProt P15151 21-343); assay: BLI (Octet-Red96), tagged rhPVR immobilised on biosensor
T2 construct: The tagged PVR of the BLI assay and the biotinylated PVR used as detector in MSD are treated as one molecule; also called rhPVR; CD155
T2 sequence (looked up): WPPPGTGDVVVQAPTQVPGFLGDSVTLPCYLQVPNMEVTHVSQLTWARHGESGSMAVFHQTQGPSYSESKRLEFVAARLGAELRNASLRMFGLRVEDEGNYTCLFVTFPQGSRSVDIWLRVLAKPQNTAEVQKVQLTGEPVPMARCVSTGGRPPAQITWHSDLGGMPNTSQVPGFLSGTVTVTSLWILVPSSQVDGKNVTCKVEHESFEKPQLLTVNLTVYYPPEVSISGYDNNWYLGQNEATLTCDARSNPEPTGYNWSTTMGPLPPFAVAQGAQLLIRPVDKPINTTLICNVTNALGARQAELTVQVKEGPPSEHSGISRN
Method: Bio-Layer interferometry-based affinity testing was used to determine the on-rates (Ka), off-rates (Kd) and binding affinities (KD) of the TIGIT-Fc-LIGHT chimeric protein to intended binding targets, using histidine- or biotin-tagged versions of the human recombinant proteins (PVR, HVEM, LTβR, PVRL2, PVRL3, and Nectin-4; purchased from Acro Biosystems or Sino Biological). Commercially available or internally produced single-sided fusion protein controls (TIGIT-Fc and Fc-LIGHT) were also tested in parallel. Targets were immobilized at a concentration of 3 μg/mL in Kinetics buffer (PBS/0.1% Tween-20/1% BSA; pH7.0) to anti-pentaHis or streptavidin coated biosensors. Direct binding of fusion proteins to recombinant target proteins was performed on an Octet-Red96 BLI instrument, using association and dissociation times of 90 and 120 seconds, respectively.
Protein-protein interactions (PPI) between the fusion proteins and their cognate binding partners were characterized using both recombinant protein and cell-based methods. First, bio-layer interferometry-based affinity testing was used to assess the kinetics of receptor/ligand binding.

[2] = target: T3, recombinant human Nectin-4 (human, UniProt Q96NY8 32-349); assay: MSD: capture hNectin-4; detection anti-Fc-HRP
T3 sequence (looked up): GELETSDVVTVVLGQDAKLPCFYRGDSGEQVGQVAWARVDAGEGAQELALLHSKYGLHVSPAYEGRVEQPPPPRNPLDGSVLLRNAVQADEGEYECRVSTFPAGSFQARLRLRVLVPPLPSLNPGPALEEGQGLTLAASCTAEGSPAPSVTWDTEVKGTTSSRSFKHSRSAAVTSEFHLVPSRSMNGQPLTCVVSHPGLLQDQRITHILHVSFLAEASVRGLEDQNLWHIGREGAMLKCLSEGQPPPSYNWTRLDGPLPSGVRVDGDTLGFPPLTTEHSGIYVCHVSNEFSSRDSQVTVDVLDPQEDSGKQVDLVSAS

[3] = target: T4, cell surface human HVEM (CHO-K1/hHVEM cells; Jurkat effector cells; human PBMC) (human, UniProt Q92956 39-283); assay: flow cytometry, CHO-K1 cells stably expressing human HVEM; cell surface HVEM
T4 construct: whole, on cells; also called cell surface HVEM
T4 sequence (looked up): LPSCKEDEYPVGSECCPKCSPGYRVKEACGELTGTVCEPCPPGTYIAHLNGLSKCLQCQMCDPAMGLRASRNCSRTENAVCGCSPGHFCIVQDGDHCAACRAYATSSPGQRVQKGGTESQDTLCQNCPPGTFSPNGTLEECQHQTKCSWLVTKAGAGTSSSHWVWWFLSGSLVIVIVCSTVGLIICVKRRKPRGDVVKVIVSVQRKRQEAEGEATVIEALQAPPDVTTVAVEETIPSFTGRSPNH

[4] = target: T5, anti-human LIGHT-biotin antibody (MSD detection); assay: MSD sandwich 'Dual - Antibody': capture anti-TIGIT, TIGIT-Fc-LIGHT titrated, detection anti-LIGHT (same curve as the capture row)
T5 construct: also called anti-LIGHT antibody

[5] = target: T6, recombinant human LTβR-Fc (human, UniProt P36941 31-227, limits assumed); assay: MSD sandwich 'Dual - Potency #1': capture LTβR-Fc, TIGIT-Fc-LIGHT titrated, detection PVR-Biotin
T6 construct: not shown: Fc of the bought fusion (Acro Biosystems); not described
T6 sequence (P36941 31-227 limits assumed): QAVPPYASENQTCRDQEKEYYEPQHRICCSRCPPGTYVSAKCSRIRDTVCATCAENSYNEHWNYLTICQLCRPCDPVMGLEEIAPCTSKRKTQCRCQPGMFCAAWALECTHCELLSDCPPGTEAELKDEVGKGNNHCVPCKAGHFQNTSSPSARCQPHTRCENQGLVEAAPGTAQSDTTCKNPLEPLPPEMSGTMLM
Method: For the TIGIT-Fc-LIGHT chimeric protein; MSD Multi-Array plates (MSD) were pre-coated overnight with recombinant human LTβR-Fc or HVEM-Fc (Acro Biosystems) at 4° C. The plates were blocked with Diluent 100 (MSD) for at least one hour at room temperature on a shaker. After washing, analysis samples were added and then serially diluted 3-fold and loaded in duplicate wells to generate 8-10 test concentrations. The bound the TIGIT-Fc-LIGHT chimeric protein was detected with recombinant biotinylated human PVR (Acro Biosystems). Streptavidin conjugated to ruthenium (MSD), was added to bind the biotin labeled detector. MSD Gold Reading buffer (MSD) was added to the plate, and upon application of an electrical charge, an electrochemiluminescent signal was produced and detected with the MSD MESO QuickPlex SQ 120MM, Model 1300, to generate relative light units (RLU). Analogous assays were performed using mTIGIT-Fc-LIGHT and murine recombinant PVR, HVEM, and […] (Acro Biosystems).
The binding of the TIGIT-Fc-LIGHT chimeric protein to its receptors was characterized by Meso Scale Discovery (MSD) ELISA assays. […] Binding of the chimeric protein to LTβR-Fc was detected using an PVR-Biotin and using an electrochemiluminescence (ECL) readout. […] Binding of the chimeric protein to HVEM-Fc was detected using an PVR-Biotin and using an electrochemiluminescence (ECL) readout. […]

B1: human TIGIT-Fc-LIGHT chimeric protein (Fc fusion)
chain: MMTGTIETTGNISAEKGGSIILQCHLSSTTAQVTQVNWEQQDQLLAICNADLGWHISPSFKDRVAPGPGLGLTLQSLTVNDTGEYFCIYHTYPDGTYTGRIFLEVLESSVAEHGARFQIPSKYGPPCPPCPAPEFLGGPSVFLFPPKPKDQLMISRTPEVTCVVVDVSQEDPEVQFNWYVDGVEVHNAKTKPREEQFNSTYRVVSVLTVLHQDWLSGKEYKCKVSSKGLPSSIEKTISNATGQPREPQVYTLPPSQEEMTKNQVSLTCLVKGFYPSDIAVEWESNGQPENNYKTTPPVLDSDGSFFLYSRLTVDKSRWQEGNVFSCSVLHEALHNHYTQKSLSLSLGKIEGRMDLQLHWRLGEMVTRLPDGPAGSWEQLIQERRSHEVNPAAHLTGANSSLTGSGGPLLWETQLGLAFLRGLSYHDGALVVTKAGYYYIYSKVQLGGVGCPLGLASTITHGLYKRTPRYPEELELLVSQQSPCGRATSSSRVWWDSSFLGGVVHLEAGEKVVVRVLDERLVRLRDGTRSYFGAFMV
notes: Said to exist as a hexamer (dimer of trimers); Glycosylated; also called hTIGIT-Fc-LIGHT; TIGIT-Fc(IgG4)-LIGHT
EC50 [1]: 1.15 nM
Kd (recombinant human PVR): 4.07 nM
koff (recombinant human PVR): 0.000103 s⁻¹
kon (recombinant human PVR): 25300 M⁻¹ s⁻¹
binding result [2]: binds
EC50 [3]: 65.8 nM
EC50 [4]: 1.15 nM
EC50 [5]: 28.3 nM
